In the supplement of paper PMC12764529:
± gives the half width of the 95% confidence interval.

Assays:
[1] = folding stability dG unfold from trypsin proteolysis; higher = more stable
Summary of the method: (§1)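 Sequencing followed digestion of designed mini-proteins with trypsin and chymotrypsin, each at 11 concentrations in threefold dilutions together with a no-protease condition. The mini-proteins were under 80 residues, had no cysteine, sat in a PA-tagged cDNA display construct, and were kept only if AlphaFold2 dimer inter-PAE was above 15. From the counts, Bayesian fitting gave K50, and unfolding free energy was derived against a sequence-predicted unfolded-state K50 and a shared folded-state K50, per protease or combined.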

[2] = folding stability dG unfold from chymotrypsin proteolysis; higher = more stable
Summary of the method: as §1

[3] = folding stability dG unfold (combined trypsin and chymotrypsin); higher = more stable
Summary of the method: as §1

Sequence	folding stability dG unfold [1]	folding stability dG unfold [2]	folding stability dG unfold [3]
SAPGLRTYTIYDPSGVRRTFPPSWDVTILEYDPKTGTVTLKITKHNTDPGAPVSTETEKRKATFLRDVESAG [r14_927_JUSTAS]	0.575 ± 0.09 kcal/mol	0.824 ± 0.12 kcal/mol	0.725 ± 0.061 kcal/mol
SAPIDIDLERDPEPGRLKATVEFPWPNGWMHRMTFDLQWPRIKVEHYPFKDGEPEPQEIEIPIPANAKVSAG [r14_64_TrROS]	0.0882 ± 0.17 kcal/mol	0.426 ± 0.24 kcal/mol	0.338 ± 0.19 kcal/mol
SAPIKIEIDVHQPPPGDYMIMVRIRPPGDGKEFPRMFPFPPDDAEKILENLLSQFPGYEIDDIEPMRYPSAG [r14_969_TrROS]	1.26 ± 0.049 kcal/mol	1.08 ± 0.15 kcal/mol	1.29 ± 0.16 kcal/mol
SAPKRYYIKIEIYDNGKKQEITIPIGATIKNPGGKEYTYPVDSPEDLEEALNDLFPPGFPIKIDDVHPPSAG [r14_41_TrROS]	0.517 ± 0.042 kcal/mol	1.21 ± 0.17 kcal/mol	0.973 ± 0.11 kcal/mol
SAPMKIVKKTDNTLYIYDKKTKKIVKITINDGTITVEEITYDKKTKEKKVETKTIKLSEEQLKKLKKLLSAG [r14_245_TrROS_Hall]	1.54 ± 0.079 kcal/mol	0.7 ± 0.24 kcal/mol	1.23 ± 0.14 kcal/mol
SAPNIEIDYNKDNGMITIRLPGTGVEYMIPMPDGQLMAIDIEVKPDPDGKRKISIEIYFPDGKEHEFEISAG [r14_675_TrROS]	2.19 ± 0.29 kcal/mol	2.45 ± 0.17 kcal/mol	2.3 ± 0.39 kcal/mol
SAPNYVLVIKIKSTNTPYYIPVPEDVEIVVKKNKNGEITAVVKVKDPETGEYFVITFSGDAKIDKIEPVPSA [r9_467_TrMRF]	2.21 ± 0.1 kcal/mol	2.93 ± 0.082 kcal/mol	2.63 ± 0.19 kcal/mol
SAPPETVEVEEVAEFELADGSKVTVAKVKLPNGETLVVVTVYNKDGEPVATFVVREGDPDALAEALKALSSA [r9_1069_TrROS_Hall]	3.9 ± 0.3 kcal/mol	4.56 ± 0.095 kcal/mol	4.51 ± 0.13 kcal/mol
SAPPNHRMVMYEIPIPPGMEIGDEIKLKIKVPGKEYPIKIDRIPNLPPGMRVRIMFNLDNGQFMIQILPSAG [r14_554_TrROS]	2.52 ± 0.1 kcal/mol	2.69 ± 0.062 kcal/mol	2.77 ± 0.26 kcal/mol
SAPPTVKINWERVRRNGKRYYMIRVEITHPNNGKEREHTFMYDDPEDFLDNLLKLPNIDRVEIEDIYPMSAG [r14_464_TrROS]	1.64 ± 0.27 kcal/mol	1.8 ± 0.2 kcal/mol	2.12 ± 0.51 kcal/mol
SAPWVYHVRIEYKGPDGEPVAEHTIMVKTPEALKEQIRKHFGLSPAQIKNIEVEPVIPAEEMNEMQEKGSAG [r14_852_TrROS]	0.204 ± 0.13 kcal/mol	1.27 ± 0.12 kcal/mol	0.882 ± 0.094 kcal/mol
SARILRVEFEPFPLTERARLRLEVEDEDNDFPYEVDIELEVLPDPSEVRLRLVVRRPDGSRRELELRLFSAG [r14_10_TrMRF]	3.56 ± 0.086 kcal/mol	4.97 ± 0.091 kcal/mol	4.23 ± 0.091 kcal/mol
SARVYRLPDGRLVRFEPVPPRPPVIVIPVDFRISPDDPETRRRLAEEIRRRLLEELGLPEDTPIFVDPSSAG [r14_453_TrMRF]	4.11 ± 0.18 kcal/mol	4.45 ± 0.14 kcal/mol	4.16 ± 0.22 kcal/mol
SASAAEEIERALLPLPNIPTAPLATFTLPDAPVEVVSYDPVTGRVLVRLTGTGALFVFDPETGEAELLPSAG [r14_359_TrMRF]	2.56 ± 0.16 kcal/mol	2.62 ± 0.054 kcal/mol	2.7 ± 0.34 kcal/mol
SASISVASPEEAEKIAKELKEKYGAKSVKIEPLPEPLVKVTIEFEVPLENGKTATRKIVLLFSSDGKEESAG [r14_420_TrMRF]	1.87 ± 0.044 kcal/mol	2.715 ± 0.016 kcal/mol	2.44 ± 0.074 kcal/mol
SASITIPVDELKDFAEHFPGFNVGVNPETGMFQIFFPENGWMINIDIEVDPDDPDTIEIDIEIYPMPPNSAG [r14_604_TrROS]	1.78 ± 0.13 kcal/mol	2.96 ± 0.15 kcal/mol	2.57 ± 0.37 kcal/mol
SASKGSSMITVELTVTVPPSVSIEEVKKQFEEEFPKDAEIKVEATPVTVPANGTPVTTIKVTVTITKKESAG [r14_633_JUSTAS]	1.27 ± 0.1 kcal/mol	1.71 ± 0.11 kcal/mol	1.56 ± 0.13 kcal/mol
SASKRFVFPVLGDEQTITVDVPEDYYVRITVFFPDGSEPILIPPNEKVTITVPRKDAFVVIEVFPKNEESAG [r14_882_TrMRF]	2.59 ± 0.077 kcal/mol	2.35 ± 0.025 kcal/mol	2.48 ± 0.067 kcal/mol

Sequence	folding stability dG unfold [1]	folding stability dG unfold [2]	folding stability dG unfold [3]
SASLEPVATTAVPLPDGTTATLTLYRDPATGRYTVRVTVTHPDGAAETRVLEVDSEEEALSRVVLSPGASAG [r14_749_JUSTAS]	2.38 ± 0.049 kcal/mol	3.421 ± 0.018 kcal/mol	3.12 ± 0.075 kcal/mol
SASLPPGQVRSLPVDVTIETPEGQPRFTEPATLEPPPRLVVDVALPLPPGEVTITIRLPGPGVTLTIERSAG [r14_280_JUSTAS]	0.562 ± 0.089 kcal/mol	1.53 ± 0.16 kcal/mol	1.42 ± 0.37 kcal/mol
SASLTLTITLPDGAKITSITVEEVDGELVLTEITVETTNENGEKTTVTRTIVLKLPPAPPAHPDDPALKSAG [r14_95_TrROS_Hall]	2.13 ± 0.13 kcal/mol	2.63 ± 0.12 kcal/mol	2.45 ± 0.15 kcal/mol
SASMTLTIPLPLKPGDRVVVEATHPLGYGFETEELPDGSVRLTLTVPTPDAPPATLHIRVYEPNTGKLASAG [r14_39_TrMRF]	2.28 ± 0.051 kcal/mol	3.24 ± 0.056 kcal/mol	2.85 ± 0.1 kcal/mol
SASMTYTVTVTVSVKNPDGTPIGTIPITRTMNLDEAKVIVEKEIKKTVDELFPGKPANVTVDTTVTPLPSAG [r14_570_JUSTAS]	0.482 ± 0.13 kcal/mol	1.6 ± 0.42 kcal/mol	0.899 ± 0.27 kcal/mol
SASPWIQKLAEEIADELAKENGWEEVKFTVTLPIRMPMYRYDPNGKKEPHDMWMWIKFEVTARVPPGDPSAG [r14_232_TrROS]	2.28 ± 0.061 kcal/mol	2.01 ± 0.18 kcal/mol	2.14 ± 0.24 kcal/mol
SASSMSLSFSVSLETDPEKGLLSTVTTTSTVTPYPDSVVTTTTVTTTVTPVPPGPPVVSPSATPVVALSSAG [r14_435_JUSTAS]	1.47 ± 0.04 kcal/mol	0.593 ± 0.098 kcal/mol	1.13 ± 0.051 kcal/mol
SASSSSSSYNVTIDPATGTVTVTNPDGSTTTVPPGSTLTVTSTSSDGGSALGSSTPSTSTTTIPVPAGTSAG [r14_366_JUSTAS]	1.05 ± 0.05 kcal/mol	0.699 ± 0.091 kcal/mol	0.919 ± 0.071 kcal/mol
SATAVVIKAEVIFPNNEKKEISVVIENLTEEEVEELAEELEKKIKEEAGIPDIEVKIKVETFAKDDPAFSAG [r14_207_TrMRF]	0.438 ± 0.16 kcal/mol	1.01 ± 0.09 kcal/mol	1.04 ± 0.3 kcal/mol
SATFTLPDGREVEVVSVEYDPETNTVTVLVRDRETGELYVFTFERLPDGEWRIVSRERVRVEPGETVLVSAG [r14_13_TrROS_Hall]	2.02 ± 0.025 kcal/mol	3.235 ± 0.022 kcal/mol	2.94 ± 0.07 kcal/mol
SATGKLAELLEEAFPDRPIASAEILGVEPLPDGRPALRFLLTFEDGSKLVVTVTSADHPEVLEAARENQSAG [r14_143_TrMRF]	3.04 ± 0.064 kcal/mol	2.913 ± 0.014 kcal/mol	2.96 ± 0.041 kcal/mol
SAVVSVDPATGVVTAKVKVDDTELTVTITRDPATGAWPVTFTPPGSGTPVVLDVPFTSVEEAIELAKRLSAG [r14_803_JUSTAS]	1.54 ± 0.02 kcal/mol	1.56 ± 0.036 kcal/mol	1.59 ± 0.05 kcal/mol
SAWKIEIKEVKRNPDGWYEITITIPFPGDPNMPVDELADEILQEFGIKDVTVEPNPDNGWIEITIRIPRSAG [r14_228_TrROS]	2.45 ± 0.067 kcal/mol	2.53 ± 0.057 kcal/mol	2.48 ± 0.19 kcal/mol
SAWVIPFEVRLPGSPEQARRQVEEWADNIANRYQQNGFRVVDIKIDEIEPDNVRVRLTIQIVPPGQEIPSAG [r14_973_TrROS]	2.74 ± 0.08 kcal/mol	2.52 ± 0.054 kcal/mol	2.66 ± 0.14 kcal/mol
SAYIQIERDPDGYIKIEVWFDSPDEGKEFVKEFVKELADQGLDIKIKVTKIEPYPGDPNMYRVSYTIKVSAG [r14_119_TrROS]	2.76 ± 0.098 kcal/mol	3.857 ± 0.038 kcal/mol	3.52 ± 0.083 kcal/mol
SAYLMFMIPIKNDEITIKIPVPPGYYVRIFVFFPDGMEPRTIPPDEKVKIKIPKPGAWIMIMVYPAEEMSAG [r14_882_TrROS]	3.38 ± 0.12 kcal/mol	5 ± 0.16 kcal/mol	4.41 ± 0.14 kcal/mol
SAYRIEIEIPSPKLAKKLEALLPPNYRIDNVRRNKNDNQVKITVEYDPGMPPSRMRRIHKEIKELIKELSAG [r14_306_TrROS]	1.24 ± 0.088 kcal/mol	2.24 ± 0.077 kcal/mol	1.86 ± 0.18 kcal/mol
SAYYIIIKIENPNDGKPFIIMIPGNNIHIFDPDNGKPVEIEVDGDKIEIKFNNRPVTVKPLEVIPPEAISAG [r14_208_TrROS]	1.54 ± 0.11 kcal/mol	2.42 ± 0.04 kcal/mol	2.15 ± 0.23 kcal/mol
